# Measured values: patent US20220228157A1, “GENE EDITING IN DIVERSE BACTERIA” (priority 2019, published 2022)
# Like-named read-outs stand apart in the source and are kept apart here.
# Key:
# [1] = tested on: Pseudomonas aeruginosa PAO1; test: Recombineering efficiency by selective plating; assay type: cell-based
# From the text: To test the activity of PapRecT and CspRecT in these three organisms, the broad-host-range pORTMAGE system (Nyerges et al., Proc. Natl. Acad. Sci. U.S.A. 113, 2502-2507 (2016)) was built on as described above. For experiments in E. coli PapRecT or CspRecT was subcloned in place of Redβ into pORTMAGE311B (Szili et al., Antimicrob. Agents Chemother. AAC.00207-19 (2019) doi:10.1128/AAC.00207-19) (FIGS. 10A-10B; Addgene accession: #120418), which transiently disrupts MMR with EcMutL_E32K, and whose RSF1010 origin of replication and m-toluic-acid-based expression system allows the plasmid to be deployed over a broad range of bacterial hosts (Honda et al., Proc. Natl. Acad. Sci. U.S.A. 88, 179-183 (1991); Gawin et al., Microb. Biotechnol. 10, 702 (2017)). These same pORTMAGE-based constructs were used for testing in C. freundii and K. pneumoniae. […] It was found, however, that the efficiency of the plasmid construct was lower in P. aeruginosa than in the enterobacterial species that pORTMAGE was optimized for. Therefore, to increase editing efficiency in P. aeruginosa, i.) ribosomal binding sites (RBS) for PapRecT and EcMutL were optimized, ii.) EcMutL_E32K was replaced with its equivalent homologous mutant from P. aeruginosa (PaMutL_E36K), iii.) the native P. aeruginosa coding sequence for PapRecT was incorporated instead of the E. coli codon-optimized version (FIG. 13).
# Virulent strains of P. aeruginosa are a frequent cause of acute infections in healthy individuals, as well as chronic infections in high-risk patients, such as those suffering from cystic fibrosis (Marvig et al., Nat. Genet. 47, 57-64 (2015)). The rate of antibiotic resistance in this species is growing, with strains adapting quickly to all clinically applied antibiotics (AbdulWahab et al., Lung India Off. Organ Indian Chest Soc. 34, 527-531 (2017); Tacconelli et al., Lancet Infect. Dis. 18, 318-327 (2018)). […] By genotyping and characterizing resistant colonies, the Minimum Inhibitory Concentration (MIC) of CIP for various resistant genotypes could be determined (Table 2, FIG. 14). […]
# [2] = tested on: E. coli; test: Allelic recombination frequency, selective vs non-selective plates; assay type: cell-based, Escherichia coli; settings: RecT alone
# Protocol: Four variants known to enable high genome editing efficiency were selected (Redβ and PapRecT in E. coli, LrpRecT in L. lactis, and MspRecT in M. smegmatis), and tested codon optimized versions of all four in both E. coli (gram-negative), and L. lactis (gram-positive). Genome editing efficiency was measured by introducing oligos encoding known antibiotic resistance mutations, and compared the antibiotic resistant cell counts to the total number of viable cells in the population (FIGS. 17E-17F). […] In L. lactis, LrpRecT was the only functional homolog, and improved oligo incorporation 7,700-fold, while the three other RecT variants were nearly non-functional, improving oligo incorporation less than 7-fold (FIG. 17H). No RecT protein functioned well both in E. coli and L. lactis.
# A single colony of E. coli was grown overnight to saturation. In the morning 30 μL of dense culture was inoculated into 3 mL of fresh media and grown for 1 hour. To induce gene expression of the pARC8 vector for recombineering experiments, L-arabinose was added to a final concentration of 0.2% (w/v) and the cells were grown an additional hour. 1 mL of cells were pelleted at 4° C. by centrifugation at 12,000×g for 2.5 minutes and washed twice with 1 mL of ice-cold dH2O. Cells were resuspended in 50 μL ice-cold dH2O containing DNA and transferred to a pre-chilled 0.1 cm electroporation cuvette.
# Electrocompetent cells were electroporated with 90-mer oligos at: 1 uM for E. coli, 50 μg for L. lactis, and 10 uM for C. crescentus. 70-mer oligos were used at 1 μg for M. smegmatis. All oligos were obtained from IDT and can be found under “Oligonucleotides for genome editing” in materials and methods. For dsDNA experiments L. lactis was electroporated with 1.5 μg purified linear dsDNA. Cells were electroporated using a Bio-Rad gene pulser set to 25 μF, 200 S2, and 1.8 kV for E. coli, 2.0 kV for L. lactis, and 1.5 kV for C. crescentus and to 1000Ω and 2.5 kV for M. smegmatis. Immediately after electroporation, cells were recovered in fresh media for 3 hours for E. coli, 1 hour for L. lactis, overnight for M. smegmatis and overnight for C. crescentus. L. lactis recovery media was supplemented with MgCl2 and CaCl2) at a concentration of 20 mM and 2 mM, respectively. E. coli recovery media was supplemented with carbenicillin. M. smegmatis recovery media was supplemented with hygromycin. C. crescentus recovery media was supplemented with 0.3% xylose and kanamycin. After recovery, the cells were serial diluted and plated on non-selective vs. selective agar plates to obtain approximately 50-500 CFU/plate. Colonies were counted using a custom script in Fiji, and allelic recombination frequency was calculated by dividing the number of colonies on selective plates, with the number of colonies on non-selective plates.
Molecule,Editing performance in P. aeruginosa [1],Editing performance in P. aeruginosa ([1]; listed as SSAP SEQ ID NO: 24),Improvement of oligo incorporation [2] [fold]
"PapRecT: SSAP from Pseudomonas aeruginosa, SEQ ID NO: 24, UniParc ID: UPI0001E9E6CB (protein, listed as Pseudomonas aeruginosa) MGTALTPLLTKFATRYEMGTTPEEVANTLKQTCFKGQVNDSQMVALLIVADQYKLNPFTKELYAFPDKNNGIVPVVGVDGWARIINENPQFDGMEFSMDQQGTECTCKIYRKDRSHAISATEYMAECKRNTQPWQSHPRRMLRHKAMIQCARLAFGFAGIYDQDEAERIVERDVTPAEQYEDVSEAICLIKDSPTMEDLQAAFSNAWKAYKTKGARDQLTAAKDQRKKELLDAPIDVEFEETGDDRAA",performed the best,functions at high efficiency,2700
"Redβ: Redβ SSAP from Enterobacteria phage λ, SEQ ID NO: 474 (protein, Bacteriophage Lambda) MSTALATLAGKLAERVGMDSVDPQELITTLRQTAFKCDASDAQFIALLIVANQYGLNPWTKEIYAFPDKQNGIVPVVGVDGWSRIINENQQFDGMDFEQDNESCTCRIYRKDRNHPICVTEWMDECRREPFKTREGREITGPWQSHPKRMLRHKAMIQCARLAFGFAGIYDKDEAERIVENTAYTAERQPERDITPVNDETMQEINTLLIALDKTWDDDLLPLCSQIFRRDIRASSELTQAEAVKALGFLKQKATEQKVAA",does not work,,1600
